Laboratory results published in patent US10428140B2, “Anti-EphA4 antibody” (EISAI R&D MANAGEMENT CO., LTD., priority 2015, dated 2019).
Residue numbers refer to the chain shown, from its start.

T1: human EphA1 (Homo sapiens, UniProt P21709)
T1 construct: a protein of the extracellular region of each human Eph receptor fused with the SEAP protein and the His tag; made in house; host or cells: Expi293F cells (culture supernatant)
T1 sequence (P21709 26-547 limits assumed): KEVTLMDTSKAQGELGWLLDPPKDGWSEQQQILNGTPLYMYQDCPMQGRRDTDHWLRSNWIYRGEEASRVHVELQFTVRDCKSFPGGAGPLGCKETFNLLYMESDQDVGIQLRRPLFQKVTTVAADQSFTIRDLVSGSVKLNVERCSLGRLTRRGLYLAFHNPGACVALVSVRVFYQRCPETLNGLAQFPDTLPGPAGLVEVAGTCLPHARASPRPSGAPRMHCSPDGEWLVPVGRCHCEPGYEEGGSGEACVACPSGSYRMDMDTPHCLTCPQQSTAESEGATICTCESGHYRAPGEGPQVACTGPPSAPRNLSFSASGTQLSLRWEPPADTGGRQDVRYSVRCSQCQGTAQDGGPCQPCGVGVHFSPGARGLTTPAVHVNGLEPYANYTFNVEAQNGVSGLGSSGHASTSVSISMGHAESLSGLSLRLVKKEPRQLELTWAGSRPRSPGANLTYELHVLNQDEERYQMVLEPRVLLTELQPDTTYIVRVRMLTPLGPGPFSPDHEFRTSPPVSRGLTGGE

T2: human EphA6 (Homo sapiens, UniProt Q9UF33)
T2 construct: a protein of the extracellular region of each human Eph receptor fused with the SEAP protein and the His tag; made in house; host or cells: Expi293F cells (culture supernatant)
T2 sequence (Q9UF33 23-550 limits assumed): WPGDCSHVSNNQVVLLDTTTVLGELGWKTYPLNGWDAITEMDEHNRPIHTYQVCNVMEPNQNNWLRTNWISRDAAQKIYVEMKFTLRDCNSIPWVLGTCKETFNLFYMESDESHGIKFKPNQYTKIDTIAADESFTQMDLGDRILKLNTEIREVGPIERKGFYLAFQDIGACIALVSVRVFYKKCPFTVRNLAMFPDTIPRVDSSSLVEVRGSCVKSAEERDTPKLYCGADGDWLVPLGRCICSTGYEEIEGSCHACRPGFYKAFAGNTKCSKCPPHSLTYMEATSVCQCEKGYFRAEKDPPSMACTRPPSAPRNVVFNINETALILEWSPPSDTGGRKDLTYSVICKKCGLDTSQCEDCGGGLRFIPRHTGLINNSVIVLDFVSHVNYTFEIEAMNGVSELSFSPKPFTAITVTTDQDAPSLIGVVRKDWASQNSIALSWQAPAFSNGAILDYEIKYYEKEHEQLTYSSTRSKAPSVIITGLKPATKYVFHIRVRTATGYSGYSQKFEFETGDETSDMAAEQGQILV

T3: human EphA8 (Homo sapiens, UniProt P29322)
T3 construct: a protein of the extracellular region of each human Eph receptor fused with the SEAP protein and the His tag; made in house; host or cells: Expi293F cells (culture supernatant)
T3 sequence (P29322 28-542 limits assumed): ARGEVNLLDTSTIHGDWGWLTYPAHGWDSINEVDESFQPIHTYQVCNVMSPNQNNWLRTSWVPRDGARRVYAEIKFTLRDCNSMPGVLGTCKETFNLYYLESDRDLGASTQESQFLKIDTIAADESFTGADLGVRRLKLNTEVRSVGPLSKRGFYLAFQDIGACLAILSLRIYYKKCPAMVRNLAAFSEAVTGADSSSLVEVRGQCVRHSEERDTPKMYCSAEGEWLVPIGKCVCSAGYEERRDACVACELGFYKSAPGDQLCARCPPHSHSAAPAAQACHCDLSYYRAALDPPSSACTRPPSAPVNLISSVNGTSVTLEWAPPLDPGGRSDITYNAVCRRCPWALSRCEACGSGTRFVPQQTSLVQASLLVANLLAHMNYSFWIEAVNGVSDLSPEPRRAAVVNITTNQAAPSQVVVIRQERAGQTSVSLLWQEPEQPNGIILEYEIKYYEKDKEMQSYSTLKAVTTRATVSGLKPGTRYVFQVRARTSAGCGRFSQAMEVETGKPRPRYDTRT

B1: 94 (antibody, V domains shown)
VL: EIVMTQSPATLSVSPGERATLSCRASENIYRNLAWYQQKPGQSPRLLIYAATNLADGIPARFSGSGSGTEYTLTISSLQSEDFAVYYCQHFWGTPWTFGQGTKVEIK
VH: QVQLVQSGSELKKPGASVKVSCKASGYTFTDYSMHWVRQAPGQGLKWMGWINTETGEPTYAQGFTGRFVFSLDTSVSTAYLQISSLKAEDTAVYYCARIPLYYYGSRYWYFDVWGQGTTVTVSS
modifications: constant regions without entry; synthetic humanized antibody light chain variable region sequence; synthetic humanized antibody heavy chain variable region sequence
B2: 71 (antibody, V domains shown)
VH: B1 VH with V2I
VL: B1 VL
modifications: synthetic humanized antibody heavy chain variable region sequence; synthetic humanized antibody light chain variable region sequence
B3: 95 (antibody, V domains shown)
VL: B1 VL
VH: B1 VH with K46E, Q62D, G63D, T65K
modifications: constant regions without entry; synthetic humanized antibody light chain variable region sequence; synthetic humanized antibody heavy chain variable region sequence
B4: 96 (antibody, V domains shown)
VL: B1 VL
VH: B1 VH with Q62D, G63D, T65K
modifications: constant regions without entry; synthetic humanized antibody light chain variable region sequence; synthetic humanized antibody heavy chain variable region sequence
B5: 73 (antibody, V domains shown)
VH: B1 VH with V2I, Q62D, G63D, T65K
VL: B1 VL
modifications: synthetic humanized antibody heavy chain variable region sequence; synthetic humanized antibody light chain variable region sequence
B6: 139 (antibody)
VH: B1 VH with K46E
VL: DIQMTQSPSSLSASVGDRVTITCRASENIYRNLAWYQQKPGKAPKLLVYAATNLADGVPSRFSGSGSGTDYTLTISSLQPEDFATYYCQHFWGTPWTFGQGTKVEIK
chain: ASTKGPSVFPLAPSSRSTSESTAALGCLVKDYFPEPVTVSWNSGALTSGVHTFPAVLQSSGLYSLSSVVTVPSSNFGTQTYTCNVDHKPSNTKVDKTVERKSCVECPPCPAPPAAAPSVFLFPPKPKDTLMISRTPEVTCVVVDVSHEDPEVQFNWYVDGVEVHNAKTKPREEQFNSTFRVVSVLTVVHQDWLNGKEYKCKVSNKGLPAPIEKTISKTKGQPREPQVYTLPPSREEMTKNQVSLTCLVKGFYPSDIAVEWESNGQPENNYKTTPPMLDSDGSFFLYSKLTVDKSRWQQGNVFSCSVMHEALHNHYTQKSLSLSPG
modifications: synthetic humanized antibody heavy chain variable region sequence; synthetic humanized antibody light chain variable region sequence; synthetic antibody constant region sequence
B7: 140 (antibody, V domains shown)
VH: B1 VH
VL: B6 VL
modifications: synthetic humanized antibody heavy chain variable region sequence; synthetic humanized antibody light chain variable region sequence
B8: 138 (antibody, V domains shown)
VH: B1 VH with V2I
VL: B6 VL
modifications: synthetic humanized antibody heavy chain variable region sequence; synthetic humanized antibody light chain variable region sequence

Each molecule was assayed against T1, human EphA1 (assay: Selectivity ELISA of humanized antibodies for human Eph receptor). Settings: coated protein 1 nM.
Type: binding
Summary of the method: (§1)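 Read-out is A450 after TMB development stopped with 1N H2SO4. Plates bore anti-His-captured human Eph extracellular region-SEAP-His proteins at 1 nM final, made in Expi293F cells. Humanized antibody binding ran 1 h at room temperature before HRP-labeled anti-IgG detection.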

| Molecule | hEphA1-SEAP-: absorbance at 450 nm, percentage with respect to hEphA4-SEAP-His as 100% [%] |
| --- | --- |
| B1 | 6.5 |
| B2 | 5.6 |
| B3 | 4.5 |
| B4 | 5.6 |
| B5 | 6.0 |
| B6 | 5.7 |
| B7 | 5.5 |
| B8 | 5.2 |

These molecules were tested against T4, human EphA2 (Homo sapiens, UniProt P29317) in the same assay as above. Settings: coated protein 1 nM.
T4 construct: a protein of the extracellular region of each human Eph receptor fused with the SEAP protein and the His tag; made in house; host or cells: Expi293F cells (culture supernatant)
T4 sequence (P29317 24-537 limits assumed): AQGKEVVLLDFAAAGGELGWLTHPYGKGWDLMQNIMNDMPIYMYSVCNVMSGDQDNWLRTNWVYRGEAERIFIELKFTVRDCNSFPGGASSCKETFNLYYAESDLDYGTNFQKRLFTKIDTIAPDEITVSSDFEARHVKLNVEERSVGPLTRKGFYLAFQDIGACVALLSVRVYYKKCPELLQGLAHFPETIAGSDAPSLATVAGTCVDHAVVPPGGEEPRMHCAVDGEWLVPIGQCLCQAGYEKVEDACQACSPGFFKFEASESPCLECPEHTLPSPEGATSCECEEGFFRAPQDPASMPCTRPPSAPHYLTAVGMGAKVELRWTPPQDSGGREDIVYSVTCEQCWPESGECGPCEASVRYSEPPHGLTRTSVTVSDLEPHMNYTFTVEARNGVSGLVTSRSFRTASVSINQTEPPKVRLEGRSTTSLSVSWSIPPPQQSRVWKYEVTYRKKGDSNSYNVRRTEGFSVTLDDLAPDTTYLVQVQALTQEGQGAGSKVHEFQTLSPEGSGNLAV
Type: binding
Summary of the method: as §1

| Molecule | hEphA2-SEAP-: absorbance at 450 nm, percentage with respect to hEphA4-SEAP-His as 100% [%] |
| --- | --- |
| B1 | 6.4 |
| B2 | 5.7 |
| B3 | 4.2 |
| B4 | 5.3 |
| B5 | 5.7 |
| B6 | 5.9 |
| B7 | 5.3 |
| B8 | 5.0 |

These molecules were tested against T5, human EphA4 (Homo sapiens, UniProt P54764) in the same assay as above. Settings: coated protein 1 nM; reference set to 100%.
T5 construct: made in house; not restated for the human SEAP-His protein
T5 sequence (P54764 20-547): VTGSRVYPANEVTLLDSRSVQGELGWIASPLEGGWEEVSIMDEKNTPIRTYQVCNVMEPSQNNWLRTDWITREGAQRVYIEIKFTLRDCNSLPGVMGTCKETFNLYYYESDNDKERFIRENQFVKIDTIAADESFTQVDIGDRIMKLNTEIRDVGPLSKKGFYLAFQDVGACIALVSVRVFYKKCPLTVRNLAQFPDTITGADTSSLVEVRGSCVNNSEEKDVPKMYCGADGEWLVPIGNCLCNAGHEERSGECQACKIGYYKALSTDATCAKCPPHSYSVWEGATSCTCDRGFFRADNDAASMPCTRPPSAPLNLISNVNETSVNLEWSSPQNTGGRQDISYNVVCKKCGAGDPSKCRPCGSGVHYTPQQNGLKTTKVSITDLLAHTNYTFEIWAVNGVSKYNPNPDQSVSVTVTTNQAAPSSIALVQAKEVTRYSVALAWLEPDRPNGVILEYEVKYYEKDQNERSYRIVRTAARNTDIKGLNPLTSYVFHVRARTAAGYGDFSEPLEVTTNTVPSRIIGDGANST
Type: binding
Summary of the method: as §1

| Molecule | hEphA4-SEAP-: absorbance at 450 nm, percentage with respect to hEphA4-SEAP-His as 100% [%] |
| --- | --- |
| B1 | 100 |
| B2 | 100 |
| B3 | 100 |
| B4 | 100 |
| B5 | 100 |
| B6 | 100 |
| B7 | 100 |
| B8 | 100 |

The molecules below were run against T2, human EphA6 in the same assay as above. Settings: coated protein 1 nM.
Type: binding
Summary of the method: as §1

| Molecule | hEphA6-SEAP-: absorbance at 450 nm, percentage with respect to hEphA4-SEAP-His as 100% [%] |
| --- | --- |
| B1 | 8.6 |
| B2 | 9.2 |
| B3 | 7.0 |
| B4 | 9.8 |
| B5 | 7.4 |
| B6 | 10.0 |
| B7 | 10.8 |
| B8 | 10.2 |

These molecules were tested against T3, human EphA8 in the same assay as above. Settings: coated protein 1 nM.
Type: binding
Summary of the method: as §1

| Molecule | hEphA8-SEAP-: absorbance at 450 nm, percentage with respect to hEphA4-SEAP-His as 100% [%] |
| --- | --- |
| B1 | 7.0 |
| B2 | 5.3 |
| B3 | 4.4 |
| B4 | 5.4 |
| B5 | 5.8 |
| B6 | 6.0 |
| B7 | 5.4 |
| B8 | 5.4 |
